Stoichiometry N data for one substance are collected here from paper doi:10.1101/2024.04.26.591406.

This assay addresses Vibrio His-FliFG fusion protein (FliF-FliG fusion) with the FliG-G214S mutation (Vibrio alginolyticus). Kind of assay: cryo-EM structure.

Values joined by “and” are separate entries in the source; they are usually repeats but may differ in a detail not shown here. Equal values may be shown once.

Take “Vibrio His-FliFG fusion protein (FliF-FliG fusion) with the FliG-G214S mutation”: the stoichiometry N is 35 subunits and 34 subunits.
